Usually Kd stands for the equilibrium constant for the complex coming apart. A low value points to higher affinity.

Assay [1] deals with mIFNAR2-ECD C94S (extracellular domain of mouse IFNAR2, His-tagged) (mouse) (UniProt O35664). The assay is described as follows: SPR, ProteOn XPR36, His-tagged receptor on HTG chip, Langmuir model, mean of 10 experiments. A general note: In SPR one partner is held on a chip, and binding of the other changes the refractive index at the surface.
The target is the same in assay [2]. The assay is described as follows: SPR, ProteOn XPR36, His-tagged receptor on HTG chip.
For assay [3], the target named is T1, mIFNAR1-ECD (extracellular domain of mouse IFNAR1, His-tagged) (mouse, UniProt P33896 27-429).
T1 construct: extracellular domain; The tag is placed at the C-terminus here only for lack of information; not shown: His-tag
T1 sequence (looked up): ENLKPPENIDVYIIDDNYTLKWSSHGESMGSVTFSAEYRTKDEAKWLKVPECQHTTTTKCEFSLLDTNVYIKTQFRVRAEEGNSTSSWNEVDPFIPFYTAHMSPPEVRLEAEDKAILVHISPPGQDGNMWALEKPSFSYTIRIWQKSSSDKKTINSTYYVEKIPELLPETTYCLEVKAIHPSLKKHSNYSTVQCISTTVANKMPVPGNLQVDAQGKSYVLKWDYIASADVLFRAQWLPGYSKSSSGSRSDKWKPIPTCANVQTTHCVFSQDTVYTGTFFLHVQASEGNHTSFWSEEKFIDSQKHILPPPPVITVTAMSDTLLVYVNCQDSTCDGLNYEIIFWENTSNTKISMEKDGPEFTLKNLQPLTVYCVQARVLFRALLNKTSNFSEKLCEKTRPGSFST
Described as above. The method, then:
(§1) For Surface Plasmon Resonance (SPR), mIFNAR1-ECD and rmIFN were expressed and purified from mammalian cell and insect cell culture, respectively, as previously described (Stifter et al. (2014) Protein Expr Purif 94:7-14); mIFNAR2-ECDC94S and rmIFN 1 were expressed and purified from mammalian cell culture also as previously described (de Weerd et al. (2013) supra). huIFNε is produced in a similar manner All SPR experiments were carried out on a ProteOn XPR36 (Bio-Rad Labs) using a HTG chip for His-tagged proteins and TBS as the running buffer. mIFNAR1-ECD and mIFNAR2-ECDC94S were immobilized to the nickel activated chip via the His-tags after dilution to […] in TBS. All IFNs (rmIFN 1, rmIFN and rmIFN) were diluted in TBS to various concentrations ranging from 40 nM to […]. All data were referenced according to the manufacturer's instructions (Bio-Rad) and analyzed using the Langmuir binding model. Data were considered for inclusion in the analysis only if the Chit value (the measure of error between measured and fitted values) was less than 10% of the Rₘₐₓ as per the manufacturer's instructions (Bio-Rad). Kₐ (1/Ms), Kd (1/s) and KD (nM) were calculated by the ProteOn Manager software and are represented as mean (+SD) from at least triplicate experiments. Significance was determined using one-way ANOVA with Dunnett's multiple comparisons testing. […]

Assay [4] addresses T1, mIFNAR1-ECD (extracellular domain of …). The assay can be described thus: SPR, ProteOn XPR36, His-tagged receptor on HTG chip, Langmuir model, n=9 experiments. As to the method:
as §1

The target is the same in assay [5]. The assay can be described thus: SPR, ProteOn XPR36, His-tagged receptor on HTG chip, Langmuir model, n=10 experiments. As to the method: as §1
In assay [6] the target is T2, huIFNAR2 (human, UniProt P48551 27-243, limits assumed).
T2 sequence (looked up): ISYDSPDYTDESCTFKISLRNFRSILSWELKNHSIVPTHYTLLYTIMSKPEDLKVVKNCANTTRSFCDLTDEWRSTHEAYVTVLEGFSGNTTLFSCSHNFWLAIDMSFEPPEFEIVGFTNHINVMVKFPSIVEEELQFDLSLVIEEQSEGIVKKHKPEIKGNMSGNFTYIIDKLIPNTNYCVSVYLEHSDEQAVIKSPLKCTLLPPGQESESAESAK
The assay is described as follows: microscale thermophoresis (MST), E. coli expressed huIFNε. Background: Microscale thermophoresis detects binding through changes in fluorescence in a small temperature gradient.

Assay [7] addresses T2, huIFNAR2. The assay is described as follows: microscale thermophoresis (MST).

Chain of mIFNAR2-ECD C94S (extracellular domain of mouse IFNAR2, His-tagged) (mouse) (O35664 22-242, stated change not applied): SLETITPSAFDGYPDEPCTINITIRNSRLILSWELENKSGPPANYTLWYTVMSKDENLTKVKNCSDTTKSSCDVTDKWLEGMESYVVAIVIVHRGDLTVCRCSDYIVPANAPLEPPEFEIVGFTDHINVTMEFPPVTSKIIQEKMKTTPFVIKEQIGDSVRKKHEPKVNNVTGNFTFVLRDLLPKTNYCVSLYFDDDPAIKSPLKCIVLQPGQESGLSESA

On to “recombinant murine interferon alpha 1 (rmIFNα1) (from UniProt P01572 24-189) (ligand)”, for which, in assay [1], the Kd is 1.68 nM.

B1: recombinant murine interferon epsilon (rmIFNε) (ligand)
chain: LEPKRIPFQLWMNRESLQLLKPLPSSSVQQCLAHRKNFLLPQQPVSPHQYQEGQVLAVVHEILQQIFTLLQTHGTMGIWEENHIEKVLAALHRQLEYVESLGGLNAAQKSGGSSAQNLRLQIKAYFRRIHDYLENQRYSSCAWIIVQTEIHRCMFFVFRFTTWLSRQDPDP
notes: also called muIFNε; MuIFNε
Turning to B1, the fold lower affinity than rmIFNα1 in assay [2] is greater than 1000 fold. For the same molecule, the “fold lower affinity than the rmIFNβ-IFNAR1-ECD interaction” value in assay [3] was roughly 200 fold. In assay [4], this molecule came in with a Kd of 556 nM.

B2: recombinant murine interferon beta (rmIFNβ) (ligand, UniProt P01575 22-182, looked up)
chain: INYKQLQLQERTNIRKCQELLEQLNGKINLTYRADFKIPMEMTEKMQKSYTAFAIQEMLQNVFLVFRNNFSSTGWNETIVVRLLDELHQQTVFLKTVLEEKQEERLTWEMSSTALHLKSYYWRVQRYLKLMKYNSYAWMVVRAEIFRNFLIIRRLTRNFQN
notes: Printed as 'rmIFN' with the Greek letter lost
In turn, B2 returned a Kd in assay [5] of 2.45 nM.

B3: human interferon epsilon (huIFNε), E. coli expressed and refolded (ligand)
chain: LDLKLIIFQQRQVNQESLKLLNKLQTLSIQQCLPHRKNFLLPQKSLSPQQYQKGHTLAILHEMLQQIFSLFRANISLDGWEENHTEKFLIQLHQQLEYLEALMGLEAEKLSGTLGSDNLRLQVKMYFRRIHDYLENQDYSTCAWAIVQVEISRCLFFVFSLTEKLSKQGRPLNDMKQELTTEFRSPRSA
notes: also called hIFN; rhIFN
On to B3, for which the Kd in assay [6] was determined as 8190 nM.

B4: huIFNβ (ligand, human, UniProt P01574 22-187, looked up)
chain: MSYNLLGFLQRSSNFQCQKLLWQLNGRLEYCLKDRMNFDIPEEIKQLQQFQKEDAALTIYEMLQNIFAIFRQDSSSTGWNETIVENLLANVYHQINHLKTVLEEKLEKEDFTRGKLMSSLHLKRYYGRILHYLKAKEYSHCAWTIVRVEILRNFYFINRLTGYLRN
notes: Comparator in the MST measurement; The source of the protein is not clearly stated; also called rhuIFNβ
B4 displayed a Kd in assay [7] of 0.25 nM.

Values taken from patent US20190351025A1 (HUDSON INSTITUTE OF MEDICAL RESEARCH, published 2019).
